Reference: patent US20210253718A1, “FRIZZLED5 PROTEIN-BINDING AGENTS” (Modmab Therapeutics Corporation, priority 2016, published 2021)

T1: FZD10 CRD (Homo sapiens, UniProt Q9ULW2)
T1 construct: 30-156; GPI anchor signal (C); expressed in transfected cells; host or cells: CHO cells, lentiviral pLenti-puro
T1 sequence (Q9ULW2 30-156): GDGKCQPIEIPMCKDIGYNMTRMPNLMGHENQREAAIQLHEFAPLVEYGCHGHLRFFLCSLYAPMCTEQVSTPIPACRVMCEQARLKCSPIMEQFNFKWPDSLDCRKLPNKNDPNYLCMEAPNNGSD

T2: FZD4 CRD (Homo sapiens, UniProt Q9ULV1)
T2 construct: E42-V167; GPI anchor signal (C); expressed in transfected cells; host or cells: CHO cells, lentiviral pLenti-puro
T2 sequence (Q9ULV1 42-167): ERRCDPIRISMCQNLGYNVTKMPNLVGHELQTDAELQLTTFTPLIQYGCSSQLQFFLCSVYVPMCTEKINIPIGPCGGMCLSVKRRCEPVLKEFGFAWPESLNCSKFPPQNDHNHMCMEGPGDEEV


Assays:
[1] = tested on: CHO cells not expressing Frizzled CRD; assay: Flow cytometry of anti-FZD5 Fab binding to CHO cells not expressing Frizzled CRD (background)
Description: The binding of anti-FZD5 Fabs to cell surface-expressed Frizzled protein was further determined for each member of the Frizzled family via flow cytometry and immunofluorescence analysis of a panel of 10 CHO cell lines, each ectopically over-expressing the extracellular cysteine-rich domain (CRD) of a different Frizzled protein family member.

[2] = tested on: RWP1 cells; assay: Effect of anti-FZD5 Fabs on proliferation of pancreatic cancer cell lines (percent growth inhibition); format: cell-based, human; details: Fab 10 μg/ml
Protocol: (§1) The effect of presently disclosed anti-FZD5 Fabs on proliferation of RNF43 loss-of-function mutant pancreatic cancer cell lines HPAFII, PATU8988S and ASPC-1; and on pancreatic cancer cell line RWP1, was tested at […] and 10 μg/ml.

[3] = tested on: PATU8988S cells; assay: as above; format: cell-based, human; details: Fab 10 μg/ml
Protocol: as §1

[4] = tested on: ASPC-1 cells; assay: as above; format: cell-based, human; details: Fab 10 μg/ml
Protocol: as §1

[5] = tested on: HPAFII cells; assay: as above; format: cell-based, human; details: for percent growth inhibition, HPAFII 2 μg/ml: Fab 2 μg/ml; for percent growth inhibition, HPAFII 10 μg/ml: Fab 10 μg/ml
Protocol: as §1

[6] = tested on: ASPC-1 cells; assay: as above; format: cell-based, human; details: Fab 2 μg/ml
[7] = tested on: RWP1 cells; assay: as above; format: cell-based, human; details: Fab 2 μg/ml
[8] = tested on: PATU8988S cells; assay: as above; format: cell-based, human; details: Fab 2 μg/ml
[9] = molecular target: T3, FZD2 CRD (Homo sapiens, UniProt Q14332); assay: Immunofluorescence of anti-FZD5 Fab binding to CHO cells overexpressing Frizzled CRD; parameters: key: −: no binding; +: very weak binder; ++: weak binder; +++: good binder; ++++: very good binder
T3 construct: D35-P161; GPI anchor signal (C); expressed in transfected cells; host or cells: CHO cells, lentiviral pLenti-puro
In short: (§2)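 First, ten CHO cell lines were made, each lentivirally expressing a different human Frizzled CRD tagged with myc and tethered by GPI. Next, anti-FZD5 Fabs were added to each line. Finally, binding was assessed by immunofluorescence and flow cytometry.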

[10] = molecular target: T1, FZD10 CRD; assay: as above; parameters: key: −: no binding; +: very weak binder; ++: weak binder; +++: good binder; ++++: very good binder
In short: as §2

[11] = molecular target: T2, FZD4 CRD; assay: as above; parameters: key: −: no binding; +: very weak binder; ++: weak binder; +++: good binder; ++++: very good binder
In short: as §2

Immunofluorescence binding, Frizzled CRD overexpressed on CHO cells: FZD2 [9]	Immunofluorescence binding, Frizzled CRD overexpressed on CHO cells: FZD10 [10]	Immunofluorescence binding, Frizzled CRD overexpressed on CHO cells: FZD4 [11]	Molecule	Median fluorescence, Frizzled CRD overexpressed on CHO cells: None [1]	percent growth inhibition, RWP1 10 μg/ml [2] [%]	percent growth inhibition, PATU8988s 10 μg/ml [3] [%]	percent growth inhibition, ASPC-1 10 μg/ml [4] [%]	percent growth inhibition, HPAFII 2 μg/ml [5] [%]	percent growth inhibition, HPAFII 10 μg/ml [5] [%]	percent growth inhibition, ASPC-1 2 μg/ml [6] [%]	percent growth inhibition, RWP1 2 μg/ml [7] [%]	percent growth inhibition, PATU8988s 2 μg/ml [8] [%]
+++	−	−	Fab-2915: anti-FZD5 Fab with antibody variable region Fv-2915; CDR SEQ ID NOs: 35, 36, 54, 93, 130, 166 (antibody, V domains shown) VH: EVQLVESGGGLVQPGGSLRLSCAASGFNIYYYSMHWVRQAPGKGLEWVASIYSSYGYTSYADSVKGRFTISADTSKNTAYLQMNSLRAEDTAVYYCARGYHYYPYYSGLDYWGQGTLVTVSS VL: DIQMTQSPSSLSASVGDRVTITCRASQSVSSAVAWYQQKPGKAPKLLIYSASSLYSGVPSRFSGSRSGTDFTLTISSLQPEDFATYYCQQAYYHSLITFGQGTKVEIK	4.49	45.04	−19.02	4.18	−16.37	−31.87	5.51	48.66	−6.43
−	−	−	Fab-2919: anti-FZD5 Fab with antibody variable region Fv-2919; CDR SEQ ID NOs: 35, 36, 58, 97, 134, 155 (antibody, V domains shown) VH: EVQLVESGGGLVQPGGSLRLSCAASGFNISYSYIHWVRQAPGKGLEWVASIYSSSGSTSYADSVKGRFTISADTSKNTAYLQMNSLRAEDTAVYYCARGAIDYWGQGTLVTVSS VL: DIQMTQSPSSLSASVGDRVTITCRASQSVSSAVAWYQQKPGKAPKLLIYSASSLYSGVPSRFSGSRSGTDFTLTISSLQPEDFATYYCQQWYSSGHVLITFGQGTKVEIK	3.08	22.54	−11.49	35.99	16.25	36.80	30.04	7.36	−7.74
++++	−	−	Fab-2916: anti-FZD5 Fab with antibody variable region Fv-2916; CDR SEQ ID NOs: 35, 36, 55, 94, 131, 167 (antibody, V domains shown) VH: EVQLVESGGGLVQPGGSLRLSCAASGFNISYSSIHWVRQAPGKGLEWVASIYPSYSYTYYADSVKGRFTISADTSKNTAYLQMNSLRAEDTAVYYCARYGYYGMDYWGQGTLVTVSS VL: DIQMTQSPSSLSASVGDRVTITCRASQSVSSAVAWYQQKPGKAPKLLIYSASSLYSGVPSRFSGSRSGTDFTLTISSLQPEDFATYYCQQWYHYPYLITFGQGTKVEIK	4.22	30.61	−19.08	42.26	31.28	52.29	44.03	1.68	−25.67
